Abundance fitness data for 45 variants are collected here from the Human Domainome abundance scans (Beltran et al. 2025).

± gives the uncertainty stated by the source.

First the molecules themselves.
B1: Triacylglycerol hydrolase DDHD2, residues 389 to 447; numbered along this chain, O94830 (parent)
chain: TLEEDLKKLQLSEFFDIFEKEKVDKEALALCTDRDLQEIGIPLGPRKKILNYFSTRKNS

In the data set the parent is B1. In words: abundance fitness (aPCA) (normalised: wild type 0, dead -1); higher = more abundant; growth selection in yeast, the domain comes from the species named. The note with it: Homo sapiens.
In the case of TLEEDLKKLQLSEFFDIFEKEKVDKEHLALCTDRDLQEIGIPLGPRKKILNYFSTRKNS [A27H], the abundance fitness turned out to be 0.357 ± 0.14.

TLEEDLKKLQLSEFFDIFEKEKVDKEMLALCTDRDLQEIGIPLGPRKKILNYFSTRKNS [A27M]: the abundance fitness turned out to be 0.639 ± 0.094.

For the variant TLEEDLKKLQLSEFFDIFEKEKVDKECLALCTDRDLQEIGIPLGPRKKILNYFSTRKNS [A27C], the abundance fitness turned out to be 0.429 ± 0.094.

On to TLEEDLKKLQLSEFFDIFEKEKVDKEFLALCTDRDLQEIGIPLGPRKKILNYFSTRKNS [A27F], for which the abundance fitness amounted to 0.708 ± 0.11.

For TLEEDLKKLQLSEFFDIFEKEKVDKEGLALCTDRDLQEIGIPLGPRKKILNYFSTRKNS [A27G], the abundance fitness worked out at 0.316 ± 0.065.

On to TLEEDLKKLQLSEFFDIFEKEKVDKESLALCTDRDLQEIGIPLGPRKKILNYFSTRKNS [A27S], for which the abundance fitness was -0.096 ± 0.076.

Turning to TLEEDLKKLQLSEFFDIFEKEKVDKELLALCTDRDLQEIGIPLGPRKKILNYFSTRKNS [A27L], the abundance fitness was -0.039 ± 0.071.

Regarding TLEEDLKKLQLSEFFDIFEKEKVDKEQLALCTDRDLQEIGIPLGPRKKILNYFSTRKNS [A27Q], the abundance fitness amounted to 0.475 ± 0.09.

As to TLEEDLKKLQLSEFFDIFEKEKVDKEVLALCTDRDLQEIGIPLGPRKKILNYFSTRKNS [A27V], the abundance fitness is 0.047 ± 0.074.

Take TLEEDLKKLQLSEFFDIFEKEKVDKEWLALCTDRDLQEIGIPLGPRKKILNYFSTRKNS [A27W]: the abundance fitness was determined as 0.841 ± 0.077.

Take TLEEDLKKLQLSEFFDIFEKEKVDKEDLALCTDRDLQEIGIPLGPRKKILNYFSTRKNS [A27D]: the abundance fitness stood at 0.437 ± 0.11.

Turning to TLEEDLKKLQLSEFFDIFEKEKVDKEILALCTDRDLQEIGIPLGPRKKILNYFSTRKNS [A27I], the abundance fitness was -0.045 ± 0.18.

With TLEEDLKKLQLSEFFDIFEKEKVDKEELALCTDRDLQEIGIPLGPRKKILNYFSTRKNS [A27E], the abundance fitness was 0.231 ± 0.083.

With TLEEDLKKLQLSEFFDIFEKEKVDKEYLALCTDRDLQEIGIPLGPRKKILNYFSTRKNS [A27Y], the abundance fitness is 0.6 ± 0.12.

With TLEEDLKKLQLSEFFDIFEKEKVDKENLALCTDRDLQEIGIPLGPRKKILNYFSTRKNS [A27N], the abundance fitness was found to be 0.263 ± 0.15.

Consider TLEEDLKKLQLSEFFDIFEKEKVDKEKLALCTDRDLQEIGIPLGPRKKILNYFSTRKNS [A27K], for which the abundance fitness worked out at 0.67 ± 0.085.

TLEEDLKKLQLSEFFDIFEKEKVDKETLALCTDRDLQEIGIPLGPRKKILNYFSTRKNS [A27T]: the abundance fitness is 0.057 ± 0.091.

Consider TLEEDLKKLQLSEFFDIFEKEKVDKEPLALCTDRDLQEIGIPLGPRKKILNYFSTRKNS [A27P], for which the abundance fitness was -0.355 ± 0.13.

Take TLEEDLKKLQLSEFFDIFEKEKVDKVALALCTDRDLQEIGIPLGPRKKILNYFSTRKNS [E26V]: the abundance fitness was -0.21 ± 0.08.

As for TLEEDLKKLQLSEFFDIFEKEKVDKKALALCTDRDLQEIGIPLGPRKKILNYFSTRKNS [E26K], the abundance fitness came to 0.481 ± 0.088.

For TLEEDLKKLQLSEFFDIFEKEKVDKRALALCTDRDLQEIGIPLGPRKKILNYFSTRKNS [E26R], the abundance fitness is 0.137 ± 0.064.

Turning to TLEEDLKKLQLSEFFDIFEKEKVDKLALALCTDRDLQEIGIPLGPRKKILNYFSTRKNS [E26L], the abundance fitness was -0.383 ± 0.071.

In the case of TLEEDLKKLQLSEFFDIFEKEKVDKMALALCTDRDLQEIGIPLGPRKKILNYFSTRKNS [E26M], the abundance fitness is -0.072 ± 0.11.

As for TLEEDLKKLQLSEFFDIFEKEKVDKWALALCTDRDLQEIGIPLGPRKKILNYFSTRKNS [E26W], the abundance fitness was -0.086 ± 0.084.

As for TLEEDLKKLQLSEFFDIFEKEKVDKQALALCTDRDLQEIGIPLGPRKKILNYFSTRKNS [E26Q], the abundance fitness is -0.107 ± 0.1.

Regarding TLEEDLKKLQLSEFFDIFEKEKVDKNALALCTDRDLQEIGIPLGPRKKILNYFSTRKNS [E26N], the abundance fitness is -0.109 ± 0.15.

On to TLEEDLKKLQLSEFFDIFEKEKVDKTALALCTDRDLQEIGIPLGPRKKILNYFSTRKNS [E26T], for which the abundance fitness was -0.173 ± 0.11.

On to TLEEDLKKLQLSEFFDIFEKEKVDKEAGALCTDRDLQEIGIPLGPRKKILNYFSTRKNS [L28G], for which the abundance fitness is -0.386 ± 0.074.

In the case of TLEEDLKKLQLSEFFDIFEKEKVDKEAKALCTDRDLQEIGIPLGPRKKILNYFSTRKNS [L28K], the abundance fitness was -0.467 ± 0.1.

For the variant TLEEDLKKLQLSEFFDIFEKEKVDKEAMALCTDRDLQEIGIPLGPRKKILNYFSTRKNS [L28M], the abundance fitness is -0.067 ± 0.11.

In the case of TLEEDLKKLQLSEFFDIFEKEKVDKEATALCTDRDLQEIGIPLGPRKKILNYFSTRKNS [L28T], the abundance fitness is -0.342 ± 0.1.

Take TLEEDLKKLQLSEFFDIFEKEKVDKEAYALCTDRDLQEIGIPLGPRKKILNYFSTRKNS [L28Y]: the abundance fitness is -0.634 ± 0.15.

With TLEEDLKKLQLSEFFDIFEKEKVDKEAWALCTDRDLQEIGIPLGPRKKILNYFSTRKNS [L28W], the abundance fitness was -0.383 ± 0.092.

Regarding TLEEDLKKLQLSEFFDIFEKEKVDKEACALCTDRDLQEIGIPLGPRKKILNYFSTRKNS [L28C], the abundance fitness was -0.325 ± 0.1.

Consider TLEEDLKKLQLSEFFDIFEKEKVDKEANALCTDRDLQEIGIPLGPRKKILNYFSTRKNS [L28N], for which the abundance fitness was -0.404 ± 0.11.

Take TLEEDLKKLQLSEFFDIFEKEKVDKEAPALCTDRDLQEIGIPLGPRKKILNYFSTRKNS [L28P]: the abundance fitness is -0.504 ± 0.12.

Turning to TLEEDLKKLQLSEFFDIFEKEKVDKEADALCTDRDLQEIGIPLGPRKKILNYFSTRKNS [L28D], the abundance fitness is -0.196 ± 0.12.

TLEEDLKKLQLSEFFDIFEKEKVDKEAVALCTDRDLQEIGIPLGPRKKILNYFSTRKNS [L28V]: the abundance fitness was 0.073 ± 0.07.

As for TLEEDLKKLQLSEFFDIFEKEKVDKEAQALCTDRDLQEIGIPLGPRKKILNYFSTRKNS [L28Q], the abundance fitness is -0.365 ± 0.12.

Regarding TLEEDLKKLQLSEFFDIFEKEKVDKEAHALCTDRDLQEIGIPLGPRKKILNYFSTRKNS [L28H], the abundance fitness was -0.252 ± 0.14.

For the variant TLEEDLKKLQLSEFFDIFEKEKVDKEARALCTDRDLQEIGIPLGPRKKILNYFSTRKNS [L28R], the abundance fitness is -0.498 ± 0.074.

In the case of TLEEDLKKLQLSEFFDIFEKEKVDKEAIALCTDRDLQEIGIPLGPRKKILNYFSTRKNS [L28I], the abundance fitness was -0.368 ± 0.11.

Take TLEEDLKKLQLSEFFDIFEKEKVDKEASALCTDRDLQEIGIPLGPRKKILNYFSTRKNS [L28S]: the abundance fitness was -0.215 ± 0.078.

As to TLEEDLKKLQLSEFFDIFEKEKVDKEAEALCTDRDLQEIGIPLGPRKKILNYFSTRKNS [L28E], the abundance fitness is -0.129 ± 0.096.

As for TLEEDLKKLQLSEFFDIFEKEKVDKEAAALCTDRDLQEIGIPLGPRKKILNYFSTRKNS [L28A], the abundance fitness was -0.352 ± 0.083.
